Reference: publication PMC4856209 (Nature methods, 2016)
No end group written: not given here.

B1: OBS1 peptide (peptide mimic of colicin OmpF Binding Sequence 1) (peptide)
peptide: SGGDGRGHNTGAHSTSG-NH2
B2: outer membrane porin OmpF (natural protein)
chain: AEIYNKDGNKVDLYGKAVGLHYFSKGNGENSYGGNGDMTYARLGFKGETQINSDLTGYGQWEYNFQGNNSEGADAQTGNKTRLAFAGLKYADVGSFDYGRNYGVVYDALGYTDMLPEFGGDTAYSDDFFVGRVGGVATYRNSNFFGLVDGLNFAVQYLGKNERDTARRSNGDGVGGSISYEYEGFGIVGAYGAADRTNLQEAQPLGNGKKAEQWATGLKYDANNIYLAANYGETRNATPITNKFTNTSGFANKTQDVLLVAQYQFDFGLRPSIAYTKSKAKDVEGIGDVDLVNYFEVGATYYFNKNMSTYVDYIINQIDSDNKLGVGSDDTVAVGIVYQF
B3: pentameric ligand-gated ion channel ELIC (natural protein)
chain: APADNAADARPVDVSVSIFINKIYGVNTLEQTYKVDGYIVAQWTGKPRKTPGDKPLIVENTQIERWINNGLWVPALEFINVVGSPDTGNKRLMLFPDGRVIYNARFLGSFSNDMDFRLFPFDRQQFVLELEPFSYNNQQLRFSDIQVYTENIDNEEIDEWWIRKASTHISDIRYDHLSSVQPNQNEFSRITVRIDAVRNPSYYLWSFILPLGLIIAASWSVFWLESFSERLQTSFTLMLTVVAYAFYTSNILPRLPYTTVIDQMIIAGYGSIFAAILLIIFAHHRQAMGVEDDLLIQRCRLAFPLGFLAIGCVLVIRGITL

Experiments:
Test in all cases: native MS
[1] = target: Vibrio sp. N418 semiSWEET (Vibrio sp. N418)
[2] = target: B2
native MS = target: the molecule itself

Molecule: Vibrio sp. N418 semiSWEET (natural protein)
- stoichiometry N [1]: 2

Molecule: B1
- Kd [2]: 690 nM
- stoichiometry N [2]: 3

Molecule: B2
- stoichiometry N (native MS): 3

Molecule: B3
- stoichiometry N (native MS): 5
